Our source for the Kd and koff values is paper PMC10119292, “Characterization of a fold in TANGO1 evolved from SH3 domains for the export of bulky cargos” (Nature Communications, 2023).

The target of assay [1] is T1, human Otoraplin, residues 18-128 (human, UniProt Q9NRC9 18-128).
T1 construct: Otoraplin, human, UniProt Q9NRC9, residues 18-128; [U-15N]-enriched for the NMR titrations; also called Otoraplin (18-128); not shown: His-tag, N-terminal, cleaved
T1 sequence (looked up): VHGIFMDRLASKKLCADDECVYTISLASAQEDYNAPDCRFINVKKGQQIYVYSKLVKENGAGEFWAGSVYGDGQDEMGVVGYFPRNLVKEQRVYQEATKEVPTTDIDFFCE
As to the kind of experiment: NMR titration; 1H-15N HSQC series of [U-15N]-Otoraplin with SOS1 (1149-1158) at protein:peptide ratios 1:0.5 to 1:50; PBS pH 7.4, 298 K; two-dimensional lineshape analysis (TITAN), two-state binding model. The conditions noted are these: both partners purified.

In assay [2] the target is Collagen type IV from human placenta (human) (UniProt P08572). Description: MST; RED-NHS-labeled collagen type IV constant at 25 nM, unlabeled partner varied (16 1:1 dilutions); 10 mM HEPES pH 7.2, 150 mM NaCl, 0.005% Tween-20, 15 µM BSA; 25 °C; 60% LED power, high MST power, MST-on time 1.5 s.
Assay [3] addresses human TANGO1 cargo-recognition (MOTH) domain, residues 21-131 (human, UniProt Q5JRA6-4 21-131, disulfides Cys38-Cys43 and Cys61-Cys124; cis-Pro83; His-tag removed with TEV (PDB 7R3M entity has one extra N-terminal Met); 15N or 15N/13C labelled for NMR). Description: NMR titration; 1H-15N HSQC series of 208 µM [U-15N]-hsTANGO1(21-131) with peptide 132-151 at ratios 1:0.25 to 1:6; 25 mM HEPES pH 7.4, 150 mM NaCl, 298 K; two-dimensional lineshape analysis (TITAN), two-state binding model. The following applies: both partners purified.

Chain of human TANGO1 cargo-recognition (MOTH) domain, residues 21-131 (Q5JRA6 other isoform, or with tags, fused parts or gaps): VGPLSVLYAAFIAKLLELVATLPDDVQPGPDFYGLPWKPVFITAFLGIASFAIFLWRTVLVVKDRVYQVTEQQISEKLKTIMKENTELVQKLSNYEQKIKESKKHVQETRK

B1: SOS1 (1149-1158), class II PPII helix peptide (peptide, UniProt Q07889 1149-1158, looked up)
peptide: VPPPVPPRRR
notes: SOS1, residues 1149-1158; also called class II ligand; PPII class II ligand; source: synthetic peptide
As to B1, in assay [1], the Kd came out at 1.3 mM and the dissociation rate constant (koff) is 350000 s⁻¹.

B2: human TALI MOTH domain, residues 23-123 (domain or fragment)
chain: TKLLADLKKCGDLECEALINRVSAMRDYRGPDCRYLNFTKGEEISVYVKLAGEREDLWAGSKGKEFGYFPRDAVQIEEVFISEEIQMSTKESDFLCLLGVS
As for B2, in assay [2], the Kd turned out to be 11.4 µM.

B3: human TANGO1 MOTH domain with C-terminal helix, residues 21-151 (domain or fragment)
chain: PGQLDPSTGRRFSEHKLCADDECSMLMYRGEALEDFTGPDCRFVNFKKGDPVYVYYKLARGWPEVWAGSVGRTFGYFPKDLIQVVHEYTKEELQVPTDETDFVCFDGGRDDFHNYNVEELLGFLELYNSAA
As to B3, the Kd in assay [2] is 3.3 µM.

B4: Drosophila melanogaster TANGO1 cargo-recognition domain, residues 30-139 (domain or fragment)
chain: TLTWAATLSDKRLCADPKCEQIISMGIAKITYAIGGEGLISFKINSPIRVLSKSAGSNMQLWGVDINGRRGYANKDFIMEKKILVRDKDLLYEVPVVGPGSPVQSVETPV
In assay [2], B4 came in with a Kd of 6.9 µM.

B5: human Otoraplin, residues 18-128 (domain or fragment)
chain: T1 sequence (looked up)
As to B5, in assay [2], the dissociation constant (Kd) was 9.9 µM.

B6: synthetic peptide of human TANGO1 residues 132-151 (predicted C-terminal helix) (peptide, UniProt Q5JRA6 132-151, looked up)
peptide: FHNYNVEELLGFLELYNSAA
notes: TANGO1, human, UniProt Q5JRA6, residues 132-151; also called C-terminal helix peptide; peptide corresponding to residues 132–151; source: synthetic peptide
With B6, in assay [3], the Kd worked out at 321 µM and the koff worked out at 1100 s⁻¹.
